Here are results for three molecules from publication PMC4776307, “The Escherichia coli Cryptic Prophage Protein YfdR Binds to DnaA and Initiation of Chromosomal Replication Is Inhibited by Overexpression of the Gene Cluster yfdQ-yfdR-yfdS-yfdT” (Frontiers in Microbiology, 2016).

First the molecules themselves.
B1: DnaA (native, wild-type) (natural protein, Escherichia coli, UniProt P03004 1-467, looked up)
chain: MSLSLWQQCLARLQDELPATEFSMWIRPLQAELSDNTLALYAPNRFVLDWVRDKYLNNINGLLTSFCGADAPQLRFEVGTKPVTQTPQAAVTSNVAAPAQVAQTQPQRAAPSTRSGWDNVPAPAEPTYRSNVNVKHTFDNFVEGKSNQLARAAARQVADNPGGAYNPLFLYGGTGLGKTHLLHAVGNGIMARKPNAKVVYMHSERFVQDMVKALQNNAIEEFKRYYRSVDALLIDDIQFFANKERSQEEFFHTFNALLEGNQQIILTSDRYPKEINGVEDRLKSRFGWGLTVAIEPPELETRVAILMKKADENDIRLPGEVAFFIAKRLRSNVRELEGALNRVIANANFTGRAITIDFVREALRDLLALQEKLVTIDNIQKTVAEYYKIKVADLLSKRRSRSVARPRQMAMALAKELTNHSLPEIGDAFGGRDHTTVLHACRKIEQLREESHDIKEDFSNLIRTLSS
notes: DnaA, chromosomal replication initiator of Escherichia coli; called native, intact, wild-type DnaA; Untagged; In the bio-oriC pull-downs it stood as DnaA complexes (multimers) formed on a biotin-tagged oriC DNA fragment; also called native DnaA; wild-type DnaA (WT); source: purified

Common to all, as to conditions: both partners purified
The target of one assay is T1, DnaB-DnaC complex (Escherichia coli, UniProt P0ACB0 1-471; P0AEF0 1-245).
T1 construct: DnaB replicative helicase of Escherichia coli (homohexamer); DnaC helicase loader of Escherichia coli; Formed beforehand from 7.5 pmol DnaB (as monomer) and 7.5 pmol DnaC; also called DnaB-DnaC complexes; source: DnaB and DnaC co-incubated on ice; copies: 6 +
The experiment in a line: pull-down; DnaA (7.5 pmol) and bio-oriC (100 fmol) with DnaB-DnaC complex (7.5 pmol each) 5 min on ice, then His-YfdR for 10 min; streptavidin beads; SDS-12% PAGE, silver staining.

The target of assay [1] is B1. The experiment in a line: pull-down; DnaA (7.5 pmol) and bio-oriC (100 fmol) with His-DiaA (10 pmol as monomer) 5 min on ice, then His-YfdR for 10 min; streptavidin beads; SDS-15% PAGE, silver staining.
Assay [2] deals with T2, biotin-tagged DnaA (bio-DnaA) (Escherichia coli, UniProt P03004 1-467, biotin (biotin-tagged)).
T2 construct: DnaA, chromosomal replication initiator of Escherichia coli; also called bio-DnaA (Full); source: purified, as reported (Ishida et al., 2004)
T2 sequence (looked up): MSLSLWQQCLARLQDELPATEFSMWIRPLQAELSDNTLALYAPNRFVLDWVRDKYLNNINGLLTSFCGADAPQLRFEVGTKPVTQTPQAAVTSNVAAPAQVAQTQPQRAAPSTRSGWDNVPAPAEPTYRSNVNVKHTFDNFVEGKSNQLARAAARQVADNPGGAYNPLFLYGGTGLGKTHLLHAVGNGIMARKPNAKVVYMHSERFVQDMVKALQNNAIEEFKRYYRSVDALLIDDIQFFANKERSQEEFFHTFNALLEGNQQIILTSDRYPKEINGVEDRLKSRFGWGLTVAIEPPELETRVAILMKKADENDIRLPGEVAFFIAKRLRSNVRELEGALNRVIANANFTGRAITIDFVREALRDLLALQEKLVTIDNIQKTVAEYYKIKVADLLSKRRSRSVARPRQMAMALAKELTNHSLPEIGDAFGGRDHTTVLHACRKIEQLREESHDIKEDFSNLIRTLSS
Briefly: pull-down; bio-DnaA (5 pmol) first incubated with purified DiaA (10 pmol), then with protein extracts of cells carrying pQRST or pBAD18; streptavidin beads; SDS-PAGE, silver staining.

The target in assay [3] is B1. The experiment in a line: pull-down; His-YfdR (10 pmol) with native DnaA or DnaA F46A in buffer R with 20 mM imidazole (20 uL; 2 mM ATP), on ice; Co2+ magnetic beads (Dynabeads); wash with 100 mM KCl and 50 mM imidazole; SDS-13% PAGE, silver staining; bead-bound DnaA subtracted.
Assay [4] addresses T2, biotin-tagged DnaA (bio-DnaA). Briefly: pull-down; DiaA (10 pmol as monomer) with bio-DnaA (5 pmol) 5 min on ice, then purified His-YfdR for 10 min; streptavidin beads; SDS-PAGE, silver staining.

T1 sequence (P0ACB0 whole entry, chain 1 of 2): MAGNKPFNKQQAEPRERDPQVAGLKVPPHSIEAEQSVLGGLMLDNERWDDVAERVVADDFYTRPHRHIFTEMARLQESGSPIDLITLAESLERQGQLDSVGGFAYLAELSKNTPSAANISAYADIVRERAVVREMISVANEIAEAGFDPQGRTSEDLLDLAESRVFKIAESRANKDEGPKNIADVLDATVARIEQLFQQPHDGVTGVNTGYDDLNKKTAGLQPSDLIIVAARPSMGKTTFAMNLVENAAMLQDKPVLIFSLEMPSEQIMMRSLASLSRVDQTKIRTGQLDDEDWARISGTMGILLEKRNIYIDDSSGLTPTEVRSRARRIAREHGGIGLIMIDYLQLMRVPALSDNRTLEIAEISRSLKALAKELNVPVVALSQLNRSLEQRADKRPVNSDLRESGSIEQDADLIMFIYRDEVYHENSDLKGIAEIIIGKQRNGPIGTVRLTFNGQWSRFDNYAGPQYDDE
T1 sequence (P0AEF0 whole entry, chain 2 of 2): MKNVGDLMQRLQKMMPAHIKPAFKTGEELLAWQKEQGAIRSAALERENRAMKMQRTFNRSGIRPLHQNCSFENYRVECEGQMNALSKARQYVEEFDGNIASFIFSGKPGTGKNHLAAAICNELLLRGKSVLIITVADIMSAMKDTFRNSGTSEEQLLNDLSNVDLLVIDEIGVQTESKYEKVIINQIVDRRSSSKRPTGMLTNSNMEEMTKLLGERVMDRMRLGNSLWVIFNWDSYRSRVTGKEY

As for B1, in the assay with DnaB-DnaC complex, the binding result is given as “binds”.

B2: DiaA (natural protein, Escherichia coli, UniProt P66817 1-196, looked up)
chain: MQERIKACFTESIQTQIAAAEALPDAISRAAMTLVQSLLNGNKILCCGNGTSAANAQHFAASMINRFETERPSLPAIALNTDNVVLTAIANDRLHDEVYAKQVRALGHAGDVLLAISTRGNSRDIVKAVEAAVTRDMTIVALTGYDGGELAGLLGPQDVEIRIPSHRSARIQEMHMLTVNCLCDLIDNTLFPHQDD
notes: results and legends say only DiaA; also called His-DiaA; purified DiaA; source: purified
In the case of B2, the binding result with DnaA (native, wild-type) [1] was “binds”; in assay [2], “binds”.

B3: His-tagged YfdR (His-YfdR) (natural protein, Escherichia coli, UniProt P76514 1-178, looked up)
chain: MSFIKTFSGKHFYYDKINKDDIVINDIAVSLSNICRFAGHLSHFYSVAQHAVLCSQLVPQEFAFEALMHDATEAYCQDIPAPLKRLLPDYKRMEEKIDAVIREKYGLPPVMSTPVKYADLIMLATERRDLGLDDGSFWPVLEGIPATEMFNVIPLAPGHAYGMFMERFNDLSELRKCA
notes: YfdR of the cryptic prophage CPS-53 of Escherichia coli; amplified from pSSP with a forward primer that begins at the ATG of yfdR (nogu10) and nogu11, cloned NheI-EcoRI into pBAD/HisB; also called purified YfdR; source: E. coli MC1061 carrying pYfdR (pBAD/HisB), arabinose-induced, purified (Ni-NTA agarose)
Consider B3, for which the binding result with DnaA (native, wild-type) [3] is “binds”; in assay [4] it was “binds”.
